# According to the nanobody polyreactivity screen of Harvey et al. (2022):
# Experiment: yeast display, Sf9 membrane polyspecificity reagent, FACS + sequencing; frameworks hold sequencing errors
# How it was run: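 Galactose induction of a Saccharomyces cerevisiae BJ5465 synthetic nanobody display library ran 36–48 hours. The cells were then stained for 1 hour at 4 °C with 10% biotinylated, detergent-solubilized Sf9 membrane reagent, pulled down on streptavidin microbeads and FACS-sorted into low and high (top ~1%) gates on expression and reagent-binding fluorescence. Labels for polyreactivity follow the gate of origin.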
row,Sequence,polyreactivity (PSR sort gate)
1,QVQLVESGGGLVQAGGSLRLSCAASGIIFTTNAMGWYRQAPGKERELVATITSGGGTYYADSVKGRFTISRDNAKNTVYLQMNSLKPEDTAVYYCAATPGWGPWIFDHSYVDFDYWGQGTQVTVSS,low polyreactivity
2,QVQLVESGGGLVQAGGSLRLSCAASGIIFTTNMGWYRQAPGKERELVATIRVNGGRTYYADSVKGRFTISRDNAQNTVYLQMNSLKPEDTAVYYCAARYSAGAQRYGYWGQGTQVTVSS,high polyreactivity
3,QVQLVESGGGLVQAGGSLRLSCAASGIIFTYYAMGWYRPAPGKERELVAAISSGGGSTYYADSVKGRFTISRDNAKITVYLQMNSLKPEDTAVYYCNADYYFVYTYLHDYWGQGTQVTVSS,low polyreactivity
4,QVQLVESGGGLVQAGGSLRLSCAASGIIFTYYAMGWYRQAPGKERELVASISSSGTSTYYADSVKGRFTISRDYAKNTVYLQMNSLKPEDTAVYYCAADWTGSNGVDYWGQGTQVTVSS,low polyreactivity
5,QVQLVESGGGLVQAGGSLRLSCAASGIIFVGYAMGWYRQAPGKERELVAAISSGGSTNYADSVKGRFTISRDNAKNTVYLQMNSLKPEDTAVYYCATDSGDGEGDYWGQGTQVTVSS,low polyreactivity
6,QVQLVESGGGLVQAGGSLRLSCAASGIIFVKYTMGWYRQAPGKERELVAAISRSGGSTYYADSVKGRFTISRDNAKNTVYLQMNSLKPEDTAVYYCNAVSRKVYPGPMDYWGQGTQVTVSS,high polyreactivity
7,QVQLVESGGGLVQAGGSLRLSCAASGIIFVKYTMGWYRQAPGKERELVAAITRGGSTYYADSVKGRFTISRDNAKNTVYLQMNSLKPEDTAVYYCAAAWYQYFVPGYRGYTYYYWGQGTQVTVSS,high polyreactivity
8,QVQLVESGGGLVQAGGSLRLSCAASGIIFVSYMGWYRQAPGKERELVAAIRWSGGRTYYADSVKGRFTISRDNAKNTVYLQMNSLKPEDTAVYFCAADALRKPKIALYDYWGQGTQVTVSS,high polyreactivity
9,QVQLVESGGGLVQAGGSLRLSCAASGIIFVYYVMGWYRQAPGKERELVASIDGSGGSTNYADSVKGRFTISRDNAKNTVYLQMNSLKPEDTAVYYCNADNILYWSTLDYWGQGTQVTVSS,low polyreactivity
10,QVQLVESGGGLVQAGGSLRLSCAASGIIFWFYAMGWNRQAPGKERELVAAISGDGDSTYYADSVKGRFTISRDNAKNTVYLQMNSLKPEDTAVYYCAAEWDPVFATDEDDYWGQGTQVTVSS,low polyreactivity
11,QVQLVESGGGLVQAGGSLRLSCAASGIIFWPYAMGWYRQAPGKERELVASISTGGSTHYADSVKGRFTISRDNAKNTVYLQLNSLKPEDTAVYYCNADVGPTYSYDYWGQGTQVTVSS,low polyreactivity
12,QVQLVESGGGLVQAGGSLRLSCAASGIIFWRYAMGWYRQAPGKERELVASISSSGGRTYYADSVKGRFTISRDNAKNTVYLQMNSLTPEDTAVYYCAARGPYGYDLLYYWGQGTQVTVSS,high polyreactivity
13,QVQLVESGGGLVQAGGSLRLSCAASGIIFWSYVMGWYRQAPGKERELVAAITFSGGSTYYADSVKGRFTISRDNAKNTVYLQMNSLKPEDTAVYYCAARYKLVRRYDYWGQGTQVTVSS,low polyreactivity
14,QVQLVESGGGLVQAGGSLRLSCAASGIIFWWYAMGWSRQAPGKERELVAAISGTGGSTYYADSVKGRFTISRDNAKNTVYLQMNSLKPEDTAVYYCAKRASPFWRGYDSWGQGTQVTVSS,low polyreactivity
15,QVQLVESGGGLVQAGGSLRLSCAASGIIFWWYTRGWYRQAPGKERELVAAISRGGNTNYADSVKGRFTISRDNAKNTVYLQMNSLKPEDTAGYYCAADRHYRFWQDDYWGQGTQVTVSS,high polyreactivity
16,QVQLVESGGGLVQAGGSLRLSCAASGIIFWYNAMGWYRQAPGKERELVASISTGGRTYYADSVKGRFTISRDNAKNTVYLQMNSLKPEDTAVYYCAAASRVGFLYCYWGQGTQVTVSS,low polyreactivity
17,QVQLVESGGGLVQAGGSLRLSCAASGIIFWYNTMGWYRQAPGKERELVAAITYGGGSTYYADSVKGRFTISRDNAKNSVYLQMNSLKPEDTAVYYCAVRNWHLIKYLHGYSRYGYWGQGTQVTVSS,low polyreactivity
18,QVQLVESGGGLVQAGGSLRLSCAASGIIFWYYAMGWYRQAPGKERELVAAINSGGSTNYADSVKGRFTISRDNAKNTVYLQMNSLKQEDTAVYYCAARYRWPIPGTQYEYWGQGTQVTVSS,low polyreactivity
19,QVQLVESGGGLVQAGGSLRLSCAASGIIFWYYAMGWYRQAPGKERELVAAISSGGGTNYADSVKGRFTISRDNAKNTVSLQMNSLKPEDTAVYYCNADDNPVWEYDYWGQGTQVTVSS,low polyreactivity
20,QVQLVESGGGLVQAGGSLRLSCAASGIIFYDNALGWYRQAPGKERELVAALDSDGSTDYADSVKGRFTISRDNAKNTVYLQMNSLKPEDTAVYYCAADLVWYASGRYIYRGYDYWGQGTQVTVSS,low polyreactivity
21,QVQLVESGGGLVQAGGSLRLSCAASGIIFYDYAMGWYRQAPGKERELVAAISRSGGSTYYADSVKGRFTISRDNAKNTVYLQMNSLKPEDTAVYYCAKDRDFSSPPTESGFDYWGQGTQVTVSS,low polyreactivity
22,QVQLVESGGGLVQAGGSLRLSCAASGIIFYDYAMGWYRQAPGKERELVAAITSNGDNTYYADSVKGRFTISRDNAKNTVYLQMNSLKPEDTAVYYCDVDGSFAADFDNYLEEYGYWGQGTQVTVSS,low polyreactivity

row,Sequence,polyreactivity (PSR sort gate)
1,QVQLVESGGGLVQAGGSLRLSCAASGIIFYDYAMGWYRQAPGKERELVAAITSSGGSTYYADSVKGRFTISRDNAKNTVYLQMNSLKPEDTAVYYCADATRGSGRRYDYWGQGTQVTVSS,high polyreactivity
2,QVQLVESGGGLVQAGGSLRLSCAASGIIFYFYAMGWYRQAPGKERELVADITSGDRTNYADSVKGRFTISRDNAKNTVYLQMNSLKPEDTAVYYCAAGTSKPTPIYGYWGQGTQVTVSS,low polyreactivity
3,QVQLVESGGGLVQAGGSLRLSCAASGIIFYGYVMGWYRQAPGKERELVATITSSGGSTYYADSVKGRFTISRDNAKNTVYLQMNSLKPEDTAVYYCAAYYYYGAWVRHDYWGQGTQVTVSS,low polyreactivity
4,QVQLVESGGGLVQAGGSLRLSCAASGIIFYHNAMGWYRKAPGKERELVATIRSSGDGTYYADSVKGRFTISRDNAKNTVYLQMNSLKPEDTAVYYCAAYWAHSYSYSVSRRYYYWGQGTQVTVSS,low polyreactivity
5,QVQLVESGGGLVQAGGSLRLSCAASGIIFYHYAMGWYRPAPGKEREFVAAITWDGGNTSYADSVKGRFTISRDYAKNTFYLQMNSLIPEDTAVYYCNTDRGPVKVSPLYESWGQGTQVTVSS,low polyreactivity
6,QVQLVESGGGLVQAGGSLRLSCAASGIIFYHYAMGWYRQAPGKEREFVAAITWDGGNTYYADSVKGRFTISRDNAKNTVYLQMNSLKPEDTAVYYCNTDRGPVKVSPLYESWGQGTQVTVSS,low polyreactivity
7,QVQLVESGGGLVQAGGSLRLSCAASGIIFYIYTMAWYRQAPGKERELVAAINRSGSRTYYADSVKGRFTISRDNAKNTVYLQMNSLKPEDTAVYYCAAGTGSRDDYWGQGTQVTVSS,high polyreactivity
8,QVQLVESGGGLVQAGGSLRLSCAASGIIFYLYAMGWYRQARGKEWELVAAISRRGVSTYYADSLMGRFTISRDNAKNTVYLQMNSLKPEDTAVYYCAAAGFGYTGEEYWGQGTQVTVSS,high polyreactivity
9,QVQLVESGGGLVQAGGSLRLSCAASGIIFYPNAMGWYRQAPGKERELVAAISWRSGSTYYADSVKGRFTISRDNAKNTVYLQMNSLKPEDTAVYYCAADRRRSYIWRYDYWGQGTQVTVSS,low polyreactivity
10,QVQLVESGGGLVQAGGSLRLSCAASGIIFYPYAMGWYRQAPGKERELVAGISWSGGRTYYADSVKGRFTISRDNAKNTVYLQMNSLKPEDTAVYYCAARYRQRAYDYWGQGTQVTVSS,high polyreactivity
11,QVQLVESGGGLVQAGGSLRLSCAASGIIFYPYAMGWYRQEPGKERYLVASISSGGDTNYADSVKGRFTISRDNAKNTVYLQMNSLKPEDTAVYYCAARVRVQYWWEYYYWGQGTQVTVSS,high polyreactivity
12,QVQLVESGGGLVQAGGSLRLSCAASGIIFYQYAMGWYRQAHGKERELVAAISSRGGSTYYADSVKGRFTISLDNAKNTVYLLMNSLKPEDTAVYYCAAGSTGSTDGYWGQGTQVTVSS,high polyreactivity
13,QVQLVESGGGLVQAGGSLRLSCAASGIIFYRYAMGWYRQAPGKERELVAAINTSGGRTYYADSVKGRFTISRDNAKNTVYLQMNSLKPEDTAVYYCAAYYSPVGFQYDYWGQGTQVTVSS,high polyreactivity
14,QVQLVESGGGLVQAGGSLRLSCAASGIIFYSNAMGWARQAPGKETELVAGISKSGGSTYYADSVKGRFTISRDNAQNTVYLQMHSLKPEDTAVYYCAVRGGGRYRSWGYDYWGQGTQVTVSS,high polyreactivity
15,QVQLVESGGGLVQAGGSLRLSCAASGIIFYSYAMGWYRQAPGKERELVAAISRRGTSTFYADSVKGRFTISRDNAKNTVYLQMNSLKPEDTAVSYCNARYKYYRGSGMDSWGQGTQVTVSS,high polyreactivity
16,QVQLVESGGGLVQAGGSLRLSCAASGIIFYSYTMGWYRQAPGKERELVAAISRNGGGTYYADSEKGRFTISRDNAKNTVYLQMNSLNPEETAVYYCAAEVDQWYYRGYDYWGQGTQVTVSS,high polyreactivity
17,QVQLVESGGGLVQAGGSLRLSCAASGIIFYVNAMGWYRQAPGKERELVAAITFGGDSTYYADSVKGRFTISRDNAKNTVYLQMNSLKPEDTAVYYCAADYVALYYWYDYWGQGTQVTVSS,low polyreactivity
18,QVQLVESGGGLVQAGGSLRLSCAASGIIFYWYAMGWYRQSPGKERELVATITSTGGSTNYADSVKGRFTISRDNAKNTVYLQMNSLKPEDTAVYYCNADRYGIYYYSRLPFDYWGQGTQVTVSS,low polyreactivity
19,QVQLVESGGGLVQAGGSLRLSCAASGIIFYYYAMGWYRPAPGKERELVAAITSSGVRTYYADSVKGRFTLSRDTAKNTVYLQMNSLKPEDTAVYYCAASVSWPRVSQRARYGYYYWGQGTQVTVSS,high polyreactivity
20,QVQLVESGGGLVQAGGSLRLSCAASGIIFYYYAMGWYRQAPGKERELVAAISWSGDGTYYADSVKGRFTISRDKAKNTVYLQMNSLKPEDTAVYYCAALNDGFTGYDYLDEYTDYGYWGQGTQVTVSS,low polyreactivity
21,QVQLVESGGGLVQAGGSLRLSCAASGIIFYYYVMGWYRQAPGKERELVAAISRSGGRTRYADSVKGRFTISRDNAKNTVYLQMNSLKPEDTAVYYCAAVGSVNYDADFDYWGQGTQVTVSS,high polyreactivity
